Numbering of substitutions follows the chain as printed. One block for each molecule: values may come before it. Ends that are not written are not given here.
Legend:
MDA-MB-231 cells = test: Colocalization of internalized β1-integrin with endogenous p120RasGAP; assay type: cell-based, human; conditions: integrin trafficking 45 min in the presence of primaquine; Pearson's correlation coefficient, n = 27 cells
[1] = target: T1, Rab21 (residues 15–225), recombinant, as used in the affinity and competition measurements (human, UniProt Q9UL25 15-225); test: fluorescence polarisation
T1 sequence (looked up): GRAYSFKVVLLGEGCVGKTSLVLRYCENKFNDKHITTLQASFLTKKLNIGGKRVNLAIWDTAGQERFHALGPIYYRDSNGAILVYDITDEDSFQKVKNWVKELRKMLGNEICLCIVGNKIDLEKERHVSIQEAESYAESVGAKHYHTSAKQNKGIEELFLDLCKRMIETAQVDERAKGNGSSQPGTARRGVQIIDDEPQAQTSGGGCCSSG

[2] = target: T2, p120RasGAP GAP domain R789A, recombinant, as used in fluorescence polarisation (human, UniProt P20936 714-1047, R789A); test: fluorescence polarisation
T2 sequence (looked up): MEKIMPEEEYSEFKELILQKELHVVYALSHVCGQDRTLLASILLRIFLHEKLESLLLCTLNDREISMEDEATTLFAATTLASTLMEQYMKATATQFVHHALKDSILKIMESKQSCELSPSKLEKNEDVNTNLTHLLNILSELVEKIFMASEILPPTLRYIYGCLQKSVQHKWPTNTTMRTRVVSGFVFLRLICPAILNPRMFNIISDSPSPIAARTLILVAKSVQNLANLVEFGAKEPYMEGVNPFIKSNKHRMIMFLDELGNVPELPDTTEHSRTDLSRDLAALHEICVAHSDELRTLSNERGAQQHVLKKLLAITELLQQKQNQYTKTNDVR

[3] = target: T3, GST-p120RasGAP GAP domain (p120 GAP WT, residues 714–1047) (human, UniProt P20936 714-1047); test: pull-down
T3 sequence (looked up): T2 sequence (looked up) with A76R

Molecule: COc1cc(NC(C)CCCN)c2ncccc2c1 (stereo not shown) [primaquine]
overlap (colocalization) of internalized β1-integrins with p120RasGAP (MDA-MB-231 cells): significantly increased the overlap of integrins with p120RasGAP

Kd [1]: 28 µM
binding result [2]: binds
B1: EDANS-conjugated α2-integrin cytoplasmic domain peptide (α2-cons, wild type) (peptide)
peptide: WKLGFFKRKYEKM
modifications: also: EDANS fluorophore coupled, end not given here

binding result [3]: binds
B2: biotinylated α1-integrin cytoplasmic domain peptide (peptide)
peptide: WKIGFFKRPLKKKMEKRPLKKKMEK
modifications: also: biotinylated, end not given here
